These results are taken from publication PMC10164398.

Common to all, as to assay: EMSA
The target of data set [1] is NS1 (89-237) effector domain;eIF4E;eIF4G1 (88-653) (Influenza A virus (H3N2);human;human, UniProt P03495;P06730;Q04637 89-237;1-217;88-653, ||).
Data set [2] concerns the target NS1 (89-237) effector domain (Influenza A virus (H3N2), UniProt P03495 89-237).
The target of a further data set is eIF4E;eIF4G1 (88-653) (human;human, UniProt P06730;Q04637 1-217;88-653, |).
eIF4E;eIF4G1 (88-653), sequence (P06730 whole entry, chain 1 of 2): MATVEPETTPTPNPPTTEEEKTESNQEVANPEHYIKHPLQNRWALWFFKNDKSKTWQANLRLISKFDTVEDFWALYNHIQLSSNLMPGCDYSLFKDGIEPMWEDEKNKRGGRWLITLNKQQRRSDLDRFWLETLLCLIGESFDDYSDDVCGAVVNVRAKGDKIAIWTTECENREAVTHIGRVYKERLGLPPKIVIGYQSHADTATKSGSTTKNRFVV
eIF4E;eIF4G1 (88-653), sequence (Q04637 88-653, chain 2 of 2): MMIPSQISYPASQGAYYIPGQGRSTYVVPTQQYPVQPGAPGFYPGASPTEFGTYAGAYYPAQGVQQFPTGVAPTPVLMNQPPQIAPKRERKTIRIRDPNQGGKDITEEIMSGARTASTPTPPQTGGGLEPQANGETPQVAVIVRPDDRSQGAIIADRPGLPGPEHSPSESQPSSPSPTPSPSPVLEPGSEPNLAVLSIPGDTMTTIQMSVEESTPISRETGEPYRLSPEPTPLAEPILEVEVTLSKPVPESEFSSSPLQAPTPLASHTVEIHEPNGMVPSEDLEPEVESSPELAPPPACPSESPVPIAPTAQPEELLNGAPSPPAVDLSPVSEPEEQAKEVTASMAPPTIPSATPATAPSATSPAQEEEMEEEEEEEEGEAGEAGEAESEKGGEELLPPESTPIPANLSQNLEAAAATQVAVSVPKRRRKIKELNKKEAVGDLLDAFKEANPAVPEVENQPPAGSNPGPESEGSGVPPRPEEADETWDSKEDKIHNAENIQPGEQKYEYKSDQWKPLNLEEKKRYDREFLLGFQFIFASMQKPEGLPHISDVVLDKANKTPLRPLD

NS1 (89-237) effector domain, sequence (P03495 89-237): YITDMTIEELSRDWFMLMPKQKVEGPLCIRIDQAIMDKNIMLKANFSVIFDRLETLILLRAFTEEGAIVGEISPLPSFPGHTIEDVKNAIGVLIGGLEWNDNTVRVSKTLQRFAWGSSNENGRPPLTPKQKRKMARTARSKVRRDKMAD
NS1 (89-237) effector domain;eIF4E;eIF4G1 (88-653), sequence (P03495 89-237, chain 1 of 3): as the sequence (P03495 89-237) above
NS1 (89-237) effector domain;eIF4E;eIF4G1 (88-653), sequence (P06730 whole entry, chain 2 of 3, the tested form may be a part): as the sequence (P06730 whole entry, chain 1 of 2) above
NS1 (89-237) effector domain;eIF4E;eIF4G1 (88-653), sequence (Q04637 88-653, chain 3 of 3): as the sequence (Q04637 88-653, chain 2 of 2) above

For the molecule GGGUGACAGUCCUGUUU (ssRNA, 5' m7G cap (vaccinia capping)) [5'-m7G-mRNA], the binding result is listed as “binds” in data set [1], “no binding” in data set [2] and “binds” with eIF4E;eIF4G1 (88-653).
